We go through 1 molecule from patent US20250122303A1, “TREATMENT AND PREVENTION OF CANCER USING HER3 ANTIGEN-BINDING MOLECULES” (Hummingbird Bioscience Pte. Ltd., priority 2021, published 2025).

In one data set the test system is N87 cells. The data set is described as follows: CCK-8 proliferation assay, N87. The class given is cell-based, human. The conditions noted are these: 5 days. On the procedure: Briefly, N87 and FaDu cells were treated with serially diluted concentrations of anti-HER3 antibody 10D1, starting from 100 μg/ml with a 9-point half log dilution. Cell proliferation was measuring using the CCK-8 proliferation assay (Dojindo, Japan) after a period of 5 days, in accordance with the manufacturer's instructions. Briefly 1× CCK-8 solution was added to each well followed by incubation for 2 h at 37° C. The OD was then measured at 450 nm.

Data set [1] deals with SNU16 cell-line derived mouse gastric carcinoma model. The data set is described as follows: SNU16 cell-line derived xenograft model. Format: in vivo. Particulars: SNU16, IP biweekly 500 μg, 9 doses. The protocol: (§1) Tumor volumes were measured 3 times a week using a digital caliper and calculated using the formula [L ×W2/2]. Study End point was considered to have been reaches once the tumors of the control arm measured >1.5 cm in length.
The model was established by subcutaneous injection of 1×10^6 SNU16 cells into the right flank (n=6 mice per treatment group).
10D1 was administered IP, biweekly at 500 μg per dose (for a total of 9 doses); a control treatment group received an equal volume of PBS.

Data set [2] concerns N87 cell-line derived mouse gastric carcinoma model. The experiment in a line: N87 cell-line derived xenograft model. The class given is in vivo. Particulars: N87, IP biweekly 500 μg, 10 doses. On the procedure:
as §1
The model was established by subcutaneous injection of 1×10^6 N87 cells into the right flank (n=6 mice per treatment group).
10D1 was administered IP, biweekly at 500 μg per dose (for a total of 10 doses); a control treatment group received an equal volume of PBS.
Tumour cells are inserted with matrigel subcutaneously into the right flanks of female NCr nude mice.
Murine tumour efficacy studies were performed using cell-line derived xenograft (CDX) models in mice. Female NCr nude mice (5-8 weeks old, 21-29 g) were subcutaneously implanted with N87, A549, FaDu, OvCAR8 cells. Treatment was initiated when tumours reached approximately 100 to 200 mm^3. Vehicle (PBS) or therapeutic antibodies (25 mg/kg) were administered intraperitoneally (IP) at indicated time points (weekly FaDu and OvCAR8, twice weekly N87 and A549). Tumours were measured twice per week using a calliper and tumour volume (mm^3) was calculated. Each data point represents the mean tumour volume ±SEM (n=8 mice).

For another data set, the target named is His-tagged human HER3 (Homo sapiens, UniProt P21860). The data set is described as follows: BLI competition between anti-HER3 antibodies for binding to HER3. On the procedure: Bio-Layer Interferometry (BLI) experiments were performed using the Octet QK384 system (ForteBio). anti-Penta-HIS (HIS1K) coated biosensor tips (ForteBio, USA) were used to capture His-tagged human HER3 (75 nM; 300 s). Binding by saturating antibody ([…]; 600 s) was detected, followed by a dissociation step (120s), followed by detection of binding with competing antibody (300 nM; 300 s), followed by a dissociation step (120s).
BLI experiments were performed as described in Example 3.5 with one alteration: 400 nM of competing antibodies were used. The variable regions of M-05-74 and M-08-11 antibodies were cloned in the PDZ vector having human IgG1 and IgKappa Fc backbone.

A short description of data set [3]: Pharmacokinetic analysis in NCr nude mice. Particulars: 500 μg.
Method: Female NCr nude mice approximately 6-8 weeks old were housed under specific pathogen-free conditions and treated in compliance with the Institutional Animal Care and Use Committee (IACUC) guidelines. 500 μg anti-HER3 antibody was administered and blood was obtained from 3 mice by cardiac puncture at baseline (−2 hr), 0.5 hr, 6 hr, 24 hr, 96 hr, 168 hr and 336 hr after administration. Antibody in the serum was quantified by ELISA.
The parameters for the pharmacokinetic analysis in rats and mice were derived from a non-compartmental model: maximum concentration (Cmax), AUC (0-336 hr), AUC (0-infinity), Half-life (t1/2), Clearance (CL), Volume of distribution at steady state (Vd).
Antibody in the serum was quantified by ELISA.
A single dose PK study was performed in NCr Nude mice (25 mg/kg HMBD-001, IV). A single dose PK study including a range of dose levels (2, 5, 10 and 25 mg/kg HMBD-001, IP) was conducted in A549 tumour bearing mice.

Entries after “also recorded” stand apart in the source; their conditions may differ.

B1: 10D1: anti-HER3 antibody clone, VH SEQ ID NO:24, VL SEQ ID NO:74; [1] of Example 2.2 (antibody, V domains shown)
VH: DVQLQESGPDLVKPSQSLSLTCTVTGYSITSGYSWHWIRQFPGNKLEWMGSIHYSGGTNYNPSLKSRISITRDTSKNQFFLQLNSVTTEDTATYFCARMTTAPRYPFDYWGQGTTLTVSS
VL: DIVMTQSQKFMSTSVGDRVSVTCKASQIVGSNVAWYQQKPGQSPKPLIYSASYRYSGVPDRFTASGSGTDFTLTITNVQSEDLAEYFCQQYSSHPLTFGAGTKLELK
A word on the half-life: it is the time in which the quantity being followed falls by half. Low readings indicate rapid decline, high ones slow decline. B1: the cell proliferation entry in the data set with N87 cells is on record as “dose-dependent inhibition of cell proliferation”. For the same molecule, the “inhibition of tumor growth” value in data set [1] is listed as about 68%; in data set [2], about 76%. The “competition with MM-121 and/or LJM-716 for binding to HER3” value with His-tagged human HER3 was “not to compete; also recorded: distinct and topologically distant epitope”. Moreover, the half-life in data set [3] amounted to 16.3 days.
